Measured values reported in publication PMC7807754, “A novel protein encoded by circular SMO RNA is essential for Hedgehog signaling activation and glioblastoma tumorigenicity” (Genome Biology, 2021).

Biological target: T1, 6xHis-SMO (human, UniProt Q99835 28-787)
T1 construct: smoothened (SMO), human; The plasmid for the 6xHis-tagged protein is not described; source: 293T, transfected, purified (HisPur Ni-NTA Purification Kit)
Experiment: co-IP; in vitro IP with proteins purified from 293T: GFP or GFP-193a.a. incubated with 6xHis-SMO for 4 h at 4 °C, immunoprecipitation overnight at 4 °C, protein A/G agarose, washed with PBST 5 times, western blotting
Settings: both partners purified

T1 sequence (Q99835 28-787): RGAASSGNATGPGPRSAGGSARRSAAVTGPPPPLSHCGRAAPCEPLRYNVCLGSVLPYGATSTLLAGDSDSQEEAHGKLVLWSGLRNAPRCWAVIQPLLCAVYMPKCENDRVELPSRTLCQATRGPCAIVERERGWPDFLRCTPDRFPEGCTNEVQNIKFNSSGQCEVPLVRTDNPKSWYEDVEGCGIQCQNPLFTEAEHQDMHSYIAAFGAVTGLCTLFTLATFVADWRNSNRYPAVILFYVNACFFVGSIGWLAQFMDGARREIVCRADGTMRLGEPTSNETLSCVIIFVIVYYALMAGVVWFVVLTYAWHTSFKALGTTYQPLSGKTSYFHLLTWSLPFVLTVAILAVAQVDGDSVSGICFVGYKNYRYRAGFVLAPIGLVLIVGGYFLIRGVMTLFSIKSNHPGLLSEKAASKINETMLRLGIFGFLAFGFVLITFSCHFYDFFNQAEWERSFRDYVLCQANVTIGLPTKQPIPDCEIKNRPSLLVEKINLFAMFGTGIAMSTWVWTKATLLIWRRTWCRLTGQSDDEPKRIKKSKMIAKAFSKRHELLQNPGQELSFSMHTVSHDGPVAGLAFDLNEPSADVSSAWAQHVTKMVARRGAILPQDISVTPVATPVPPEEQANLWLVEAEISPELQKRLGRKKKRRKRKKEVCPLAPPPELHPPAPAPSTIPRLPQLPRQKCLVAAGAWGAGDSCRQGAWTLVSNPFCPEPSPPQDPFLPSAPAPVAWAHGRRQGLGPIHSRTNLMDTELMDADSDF

binding result: binds
B1: GFP-SMO-193a.a. (natural protein, human)
chain: MHSYIAAFGAVTGLCTLFTLATFVADWRNSNRYPAVILFYVNACFFVGSIGWLAQFMDGARREIVCRADGTMRLGEPTSNETLSCVIIFVIVYYALMAGVVWFVVLTYAWHTSFKALGTTYQPLSGKTSYFHLLTWSLPFVLTVAILAVAQVDGDSVSGICFVGYKNYRYRAGFVLAPIGLVLIVGGYFLIRE
notes: SMO (smoothened), human, amino acids 230-421; the open reading frame of circ-SMO; extra Glu at the C-terminal, not part of linear SMO; The plasmid for the GFP-tagged protein is not described; source: 293T, transfected, purified (anti-GFP antibody, Catch and Release v2.0 Reversible Immunoprecipitation System)
